Test results: patent US7268216B2, “Chimeric avidin mutants” (Licentia Oy, priority 2004, dated 2007)
Read-outs that look alike come from different tables or passages of the source. Marks after values point to notes of the source that are not given here.

Assays:
[1] = Radiobiotin dissociation assay; type: binding; settings: [3H]biotin, various temperatures
Method: The dissociation rate of [3H]biotin from avidin, AVR4/5 and the avidin mutants was determined as described in (20) at various temperatures. The activation thermodynamic parameters for AVR4/5(C122S) and avidin were determined by analysis of the dependence of the dissociation rate upon temperature using the global fit of all data, as described in (21).

[2] = cited from earlier work
[3] = tested on: Proteinase K; settings: even without bound biotin; refs (8,32); cited from earlier work
[4] = recombinant protein, earlier report; cited from earlier work
[5] = Microplate assay: remaining biotin-binding activity after heat treatment; type: physicochemical; settings: 50 mM phosphate buffer, 100 mM NaCl, pH 7.0
Method: The inactivation of the proteins during heat-treatment was analysed by using a microplate assay (23). The proteins were heated to 99.9° C. in 50 mM phosphate buffer containing 100 mM NaCl (pH 7.0) for 32 minutes. The remaining activity was probed by measuring the ability of the proteins to bind biotinylated alkaline phosphatase by coating the microplate wells with samples of the heated proteins.

[6] = tested on: Proteinase K; experiment: Proteinase K assay (proteolytic resistance, SDS-PAGE); type: physicochemical; settings: for state after incubation with Proteinase K: 16 hours, in the presence or absence of biotin
Method: The proteolytic resistance of the proteins were studied using proteolysis by Proteinase K, as previously described (7). Protein sample (4 μg) was incubated in the presence of Proteinase K ( 1/25 w/w) at 37° C. for a predetermined time period, denatured by boiling in sample buffer (SDS, 2-mercaptoethanol) and subjected to SDS-PAGE followed by coomassie staining.

[7] = IAsys optical biosensor (SPR), 2-iminobiotin binding; settings: 2-iminobiotin surface, 20° C., 50 mM borate buffer pH 9.5, 1 M NaCl
Method: The biotin-binding characteristics of the different avidins were studied by a surface plasmon resonance (SPR) optical biosensor (IAsys). The binding affinities to the 2-iminobiotin surface in 50 mM borate buffer (pH 9.5, 1 M NaCl) were measured as previously reported (7).

[8] = Fluorescent biotin dissociation assay; type: binding
Method: The binding of labelled biotin to avidins was analysed by a method based on the quenching of a biotin-coupled fluorescent probe ArcDia BF560 (ArcDia Ltd., Turku, Finland) due to binding to avidin, as previously described (18). The measurements were performed using a PerkinElmer LS55 luminometer with thermostated cuvette (25 or 50° C.). The signal measured for 3600 sec (25° C.) or 2400 sec (50° C.) was used to determine the dissociation rate constant.

[9] = Differential scanning calorimetry (DSC), heat denaturation; type: physicochemical; settings: for ΔTm, change in Tm upon addition of a three-fold molar excess of biotin / Tm(+biotin) / ΔH (unfolding enthalpy) / Tm(−biotin): DSC; for Tm(+biotin): biotin 3:1 molar ratio biotin:avidin monomer; for ΔH (unfolding enthalpy): sample without biotin; for Tm(−biotin): without biotin, average ± S.D
Method: The transition midpoint of the heat denaturation (Tm) of the avidin proteins was studied using a Calorimetry Sciences Corporation (CSC) Nano II differential scanning calorimeter, as in previous reports (22,23). Proteins (˜0.5 mg/ml) were analyzed both in the absence and presence of biotin (3:1 molar ratio; biotin:avidin monomer).

Molecule	biotin binding / dissociation rate in radiobiotin dissociation assay [1]	Activity: biotin-binding activity after 32 min treatment at 99.9° C. [5]	kass, association rate constant [7]	Release 1 h (total release of the probe) ([8]; 25° C.)	kdiss, dissociation rate constant ([8]; 25° C.)	Release 1 h (total release of the probe) ([8]; 50° C.)	kdiss, dissociation rate constant ([8]; 50° C.)	ΔTm, change in Tm upon addition of a three-fold molar excess of biotin [9]	Tm(+biotin) [9]	ΔH (unfolding enthalpy) [9]	Tm(−biotin) [9]	state after incubation with Proteinase K [6]	Tm, transition midpoint of heat denaturation [9]	also measured
AVR4/5: Avidin-related protein encoded identically by chicken genes AVR4 and AVR5 (protein, UniProt P56734 25-150, looked up) Avidin-related protein 4/5: ARKCSLTGKWTNNLGSIMTIRAVNSRGEFTGTYLTAVADNPGNITLSPLLGIQHKRASQPTFGFTVHWNFSESTTVFTGQCFIDRNGKEVLKTMWLLRSSVNDISYDWKATRVGYNNFTRLCTVEE	almost as tightly as avidin													Tm, transition midpoint of heat denaturation ([2]; from ref (8)): 106.4 °C; resistance to cleavage by Proteinase K [3]: resistant to cleavage; biotin binding [4]: almost as tightly as avidin
AVR4/5(C122S): AVR4/5 with the cysteine forming intermonomeric disulphide bridges mutated to serine; insect cell produced (protein, UniProt P56734 25-150, looked up, variant C122S) Avidin-related protein 4/5: ARKCSLTGKWTNNLGSIMTIRAVNSRGEFTGTYLTAVADNPGNITLSPLLGIQHKRASQPTFGFTVHWNFSESTTVFTGQCFIDRNGKEVLKTMWLLRSSVNDISYDWKATRVGYNNFTRLSTVEE	tight biotin binding	72%	(9.3 ± 0.4) × 10^3 M^−1s^−1	12.5%	2.77 10^−5 s^−1	93.7%	7.88 10^−4 s^−1							resistance to the proteolytic activity of Proteinase K ([6]; even without biotin): total resistance; ΔH (unfolding enthalpy) ([2]; DSC, sample without biotin, results from ref (8)): 137 ± 7.89 kcal/mol; Tm(+biotin) ([2]; DSC, with biotin, results from ref (8)): 125.4 ± 0.8 °C; Tm(−biotin) ([2]; DSC, without biotin, results from ref (8)): 106.4 ± 0.8 °C; ΔTm, change in Tm upon addition of a three-fold molar excess of biotin ([2]; DSC, results from ref (8)): 19.5 °C
AVR4/5(C122S)-b: AVR4/5(C122S) produced in E. coli, non-glycosylated, three additional N-terminal residues (Gln-Thr-Val) (protein, UniProt P56734 25-150, looked up, variant C122S, N-terminal Gln-Thr-Val extension) Avidin-related protein 4/5: ARKCSLTGKWTNNLGSIMTIRAVNSRGEFTGTYLTAVADNPGNITLSPLLGIQHKRASQPTFGFTVHWNFSESTTVFTGQCFIDRNGKEVLKTMWLLRSSVNDISYDWKATRVGYNNFTRLSTVEE	slightly slower dissociation rate	56%		10.9%	2.31 10^−5 s^−1	88.3%	6.20 10^−4 s^−1	17.2 °C	127.1 °C	110 kcal/mol	109.9 °C	remaining intact		
ChiAVD: Chimeric avidin: residues 38-58 moved from AVR4/5 to avidin (SEQ ID NO:15) (protein, listed as Gallus gallus) MVHATSPLLLLLLLSLALVAPGLSARKCSLTGKWTNDLGSNMTIGAVNSRGEFTGTYITAVADNPGNITLSPLLGIQHKRASQPTFGFTVNWKFSESTTVFTGQCFIDRNGKEVLKTMWLLRSSVNDIGDDWKATRVGINIFTRLRTQKE	resembled AVR4/5(C122S)	47%	(1.7 ± 0.1) × 10^4 M^−1s^−1	13.1%	1.76 10^−5 s^−1	93.9%	8.00 10^−4 s^−1	27.9 °C	124.4 ± 0.2 °C	126 ± 2.39 kcal/mol	96.5 ± 0.2 °C	remaining intact	96.5 °C	
ChiAVD(I117Y): Residues 38-58 moved from AVR4/5 to avidin and mutation I117Y in 1-3 subunit interface (SEQ ID NO:16) (protein, listed as Gallus gallus) MVHATSPLLLLLLLSLALVAPGLSARKCSLTGKWTNDLGSNMTIGAVNSRGEFTGTYITAVADNPGNITLSPLLGIQHKRASQPTFGFTVNWKFSESTTVFTGQCFIDRNGKEVLKTMWLLRSSVNDIGDDWKATRVGYNIFTRLRTQKE	resembled AVR4/5(C122S)	98%	(1.6 ± 0.2) × 10^4 M^−1s^−1	9.5%	1.94 10^−5 s^−1	94.8%	7.33 10^−4 s^−1	~19 °C	~130^d ° C.	158 ± 9.08 kcal/mol	111.1 ± 0.2 °C	remaining intact	111.1 °C	
